The assay concerns the target G9a or GLP catalytic SET domains. The experiment in a line: ITC. Background: ITC needs no label: the signal is the heat of the interaction.

Broadly, the Kd is the concentration at which binding is half-saturated. A lower Kd goes with tighter binding. Substance mDnmt3a(39–50)K44me0 peptide yielded a Kd of 4 to 6 µM.

The values are drawn from article PMC3286832.
